Laboratory results published in article PMC11237882 (Protein Science : A Publication of the Protein Society, 2024).

Columns and labels:
Homer1 EVH1 domain = Homer1 EVH1 domain (Homo sapiens, UniProt Q86YM7); details: read-out: K D ^Homer1; pH 7.6; SD
[1] = biological target: ddEVH1 (D. discoideum EVH1 domain of ddVASP) (Dictyostelium discoideum, UniProt Q5TJ65)
[2] = test system: ENAH EVH1 domain tetramers; assay: Peptide SPOT array, ENAH EVH1 domain tetramers; type: binding, human; details: SPOT intensities, tetrameric EVH1, 0.5 μM monomer
Procedure: Protein expression was carried out as above.
ABI3 substitution and overlapping motif SPOT arrays were synthesized at the MIT Biopolymer Facility using an Intavis SPOT synthesis peptide arrayer system. At the N‐terminus, the 20‐mer peptides were capped with a Gly‐Ser linker and acetylated. The peptides were linked to the cellulose membrane by a C‐terminal PEG spacer. For the overlapping motif array, because many of the peptide sequences contain additional Ena/VASP and Homer motifs, each peptide was also synthesized as a control where the internal proline tract was mutated to poly‐glycine. The protocol for blocking and probing the membrane was adapted from Frank and Dübel ([2006]). […] The following day, the array was washed in T‐TBS (TBS + 0.05% Tween‐20) and then incubated with the protein sample in MBS (+1 μM DTT) for 3 h at room temperature. All array experiments were carried out with streptavidin‐Cy3 (Thermo Fisher) pre‐tetramerized EVH1 at a final monomer concentration of 0.5 μM. The membrane was washed three times in T‐TBS prior to scanning on a GE Amersham Imager 680. SPOT intensities were calculated using the ImageJ analysis software (Abràmoff et al., [2004]). No background correction was performed. For the overlapping peptides, the final intensity was calculated as the difference between the intensity of the wild‐type and motif knockout control. […]

Homer1 EVH1 domain, sequence (Q86YM7 with tags, fused parts or gaps): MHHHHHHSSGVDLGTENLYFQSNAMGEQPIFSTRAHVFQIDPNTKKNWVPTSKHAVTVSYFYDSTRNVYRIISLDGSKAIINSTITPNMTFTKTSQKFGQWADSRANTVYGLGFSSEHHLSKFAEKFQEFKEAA
ddEVH1 (D. discoideum EVH1 domain of ddVASP), sequence (Q5TJ65 with tags, fused parts or gaps): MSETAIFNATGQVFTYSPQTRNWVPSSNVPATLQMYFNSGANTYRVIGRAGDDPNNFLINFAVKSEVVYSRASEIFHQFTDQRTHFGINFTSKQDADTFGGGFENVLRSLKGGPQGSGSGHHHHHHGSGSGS

DIESDFPPPPEDFPAADELP [FAT1]
Kd (Homer1 EVH1 domain): 98 ± 7 µM | ddEVH1 binding, result in words [1]: bound poorly | Binding to ENAH relative to Homer1 EVH1 in the SPOT array assay [2]: two‐ to three‐fold better
